Legend:
Assay in all cases: two-hybrid library CCmax;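 further: natural log of median RNA to DNA barcode read ratio; higher means stronger binding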
4H3343-AA = biological target: T1, 4H3343-AA
T1 chain: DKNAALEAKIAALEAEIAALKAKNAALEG

4H335-AA = biological target: T2, 4H335-AA; conditions: mean of both orientations
T2 chain: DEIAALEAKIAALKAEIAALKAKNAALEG

4H342-AA = biological target: T3, 4H342-AA; conditions: mean of both orientations
T3 chain: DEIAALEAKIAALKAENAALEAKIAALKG

4H3427-AA = biological target: T4, 4H3427-AA; conditions: mean of both orientations
T4 chain: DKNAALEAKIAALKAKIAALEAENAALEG

4H3606-AA = biological target: T5, 4H3606-AA; conditions: mean of both orientations
T5 chain: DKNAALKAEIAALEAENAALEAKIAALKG

4H3627-AA = biological target: T6, 4H3627-AA; conditions: mean of both orientations
T6 chain: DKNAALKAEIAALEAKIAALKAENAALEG

4H3655-AA = biological target: T7, 4H3655-AA; conditions: mean of both orientations
T7 chain: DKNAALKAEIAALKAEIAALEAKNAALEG

4H3844-AA = biological target: T8, 4H3844-AA; conditions: mean of both orientations
T8 chain: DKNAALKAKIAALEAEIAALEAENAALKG

4H3921-AA = biological target: T9, 4H3921-AA; conditions: mean of both orientations
T9 chain: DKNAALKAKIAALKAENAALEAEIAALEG

4H429-AA = biological target: T10, 4H429-AA; conditions: mean of both orientations
T10 chain: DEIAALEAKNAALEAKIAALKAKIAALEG

4H454-AA = biological target: T11, 4H454-AA; conditions: mean of both orientations
T11 chain: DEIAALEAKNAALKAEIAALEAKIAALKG

4H48-AA = biological target: T12, 4H48-AA; conditions: mean of both orientations
T12 chain: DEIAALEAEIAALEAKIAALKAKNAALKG

4H566-AA = biological target: T13, 4H566-AA; conditions: mean of both orientations
T13 chain: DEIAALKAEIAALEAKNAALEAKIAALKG

4H605-AA = biological target: T14, 4H605-AA; conditions: mean of both orientations
T14 chain: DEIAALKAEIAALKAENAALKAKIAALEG

4H678-AA = biological target: T15, 4H678-AA; conditions: mean of both orientations
T15 chain: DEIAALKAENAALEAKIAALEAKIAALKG

4H717-AA = biological target: T16, 4H717-AA; conditions: mean of both orientations
T16 chain: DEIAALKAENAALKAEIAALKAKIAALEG

4H780-AA = biological target: T17, 4H780-AA; conditions: mean of both orientations
T17 chain: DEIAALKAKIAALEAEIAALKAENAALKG

4H794-AA = biological target: T18, 4H794-AA; conditions: mean of both orientations
T18 chain: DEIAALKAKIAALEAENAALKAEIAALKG

4H881-AA = biological target: T19, 4H881-AA; conditions: mean of both orientations
T19 chain: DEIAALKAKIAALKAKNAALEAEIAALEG

4H906-AA = biological target: T20, 4H906-AA; conditions: mean of both orientations
T20 chain: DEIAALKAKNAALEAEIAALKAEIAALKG

4H993-AA = biological target: T21, 4H993-AA; conditions: mean of both orientations
T21 chain: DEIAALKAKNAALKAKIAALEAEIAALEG

4H3395-AA = biological target: T22, 4H3395-AA
T22 chain: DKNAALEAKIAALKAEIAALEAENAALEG

4H3410-AA = biological target: T23, 4H3410-AA; conditions: mean of both orientations
T23 chain: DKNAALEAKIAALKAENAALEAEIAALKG

4H3590-AA = biological target: T24, 4H3590-AA; conditions: mean of both orientations
T24 chain: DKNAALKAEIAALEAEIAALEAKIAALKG

4H3697-AA = biological target: T25, 4H3697-AA; conditions: mean of both orientations
T25 chain: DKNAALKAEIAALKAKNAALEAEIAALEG

4H3753-AA = biological target: T26, 4H3753-AA; conditions: mean of both orientations
T26 chain: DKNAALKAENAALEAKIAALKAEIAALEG

4H3865-AA = biological target: T27, 4H3865-AA; conditions: mean of both orientations
T27 chain: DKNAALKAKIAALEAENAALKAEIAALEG

4H458-AA = biological target: T28, 4H458-AA; conditions: mean of both orientations
T28 chain: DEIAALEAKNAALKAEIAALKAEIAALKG

4H485-AA = biological target: T29, 4H485-AA; conditions: mean of both orientations
T29 chain: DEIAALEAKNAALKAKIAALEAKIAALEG

4H536-AA = biological target: T30, 4H536-AA; conditions: mean of both orientations
T30 chain: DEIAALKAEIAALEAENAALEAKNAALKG

4H570-AA = biological target: T31, 4H570-AA; conditions: mean of both orientations
T31 chain: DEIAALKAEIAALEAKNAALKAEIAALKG

4H629-AA = biological target: T32, 4H629-AA; conditions: mean of both orientations
T32 chain: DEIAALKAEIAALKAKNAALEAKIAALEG

4H710-AA = biological target: T33, 4H710-AA; conditions: mean of both orientations
T33 chain: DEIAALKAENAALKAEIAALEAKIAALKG

4H745-AA = biological target: T34, 4H745-AA; conditions: mean of both orientations
T34 chain: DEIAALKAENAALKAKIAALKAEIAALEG

4H797-AA = biological target: T35, 4H797-AA; conditions: mean of both orientations
T35 chain: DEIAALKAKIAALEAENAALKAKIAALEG

4H850-AA = biological target: T36, 4H850-AA; conditions: mean of both orientations
T36 chain: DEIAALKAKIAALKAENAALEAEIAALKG

4H891-AA = biological target: T37, 4H891-AA; conditions: mean of both orientations
T37 chain: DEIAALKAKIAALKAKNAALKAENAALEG

4H909-AA = biological target: T38, 4H909-AA; conditions: mean of both orientations
T38 chain: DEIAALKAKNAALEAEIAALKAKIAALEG

4H930-AA = biological target: T39, 4H930-AA; conditions: mean of both orientations
T39 chain: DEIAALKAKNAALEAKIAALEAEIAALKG

4H94-AA = biological target: T40, 4H94-AA; conditions: mean of both orientations
T40 chain: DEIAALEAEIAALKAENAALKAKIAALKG

4H428-AA = biological target: T41, 4H428-AA
T41 chain: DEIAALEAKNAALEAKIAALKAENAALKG

4H478-AA = biological target: T42, 4H478-AA; conditions: mean of both orientations
T42 chain: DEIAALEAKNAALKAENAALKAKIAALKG

4H497-AA = biological target: T43, 4H497-AA; conditions: mean of both orientations
T43 chain: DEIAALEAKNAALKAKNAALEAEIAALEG

4H656-AA = biological target: T44, 4H656-AA; conditions: mean of both orientations
T44 chain: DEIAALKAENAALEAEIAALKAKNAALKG

4H675-AA = biological target: T45, 4H675-AA; conditions: mean of both orientations
T45 chain: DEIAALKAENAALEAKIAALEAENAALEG

4H971-AA = biological target: T46, 4H971-AA; conditions: mean of both orientations
T46 chain: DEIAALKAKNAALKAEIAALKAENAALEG

Binder DKNAALEAKIAALEAEIAALKAKNAALEG [4H3343-AA] has an interaction score (4H3343-AA) of 1.37, an interaction score (4H335-AA) of 0.806 and an interaction score (4H342-AA) of -1.13. For the same binder, the interaction score (4H3427-AA) was -0.88, the interaction score (4H3606-AA) was -1.94 and the interaction score (4H3627-AA) was -0.363. It also gave an interaction score (4H3655-AA) of -1.03, an interaction score (4H3844-AA) of 0.2 and an interaction score (4H3921-AA) of -1.44. It also gave an interaction score (4H429-AA) of -1.22, an interaction score (4H454-AA) of -0.866 and an interaction score (4H48-AA) of -0.868. The interaction score (4H566-AA) was -1.55, the interaction score (4H605-AA) was -1.38 and the interaction score (4H678-AA) was -1.08. It also gave an interaction score (4H717-AA) of -1.27, an interaction score (4H780-AA) of -1.16 and an interaction score (4H794-AA) of -1.33. For the same binder, the interaction score (4H881-AA) was -1.72, the interaction score (4H906-AA) was -1.17 and the interaction score (4H993-AA) was -1.4.

In the case of DKNAALEAKIAALKAEIAALEAENAALEG [4H3395-AA], the interaction score (4H3395-AA) is reported as 0.0829, the interaction score (4H3410-AA) is reported as -1.06 and the interaction score (4H3590-AA) is reported as 0.738. For the same binder, the interaction score (4H3697-AA) was -1.79, the interaction score (4H3753-AA) was -0.825 and the interaction score (4H3865-AA) was -1.79. It also gave an interaction score (4H458-AA) of -1.44, an interaction score (4H485-AA) of -1.67 and an interaction score (4H536-AA) of -1.14. The interaction score (4H570-AA) was -0.846, the interaction score (4H629-AA) was -1.64 and the interaction score (4H710-AA) was -1.32. For the same binder, the interaction score (4H745-AA) was -1.46, the interaction score (4H797-AA) was -1.43 and the interaction score (4H850-AA) was -1.34. The interaction score (4H891-AA) was 0.496, the interaction score (4H909-AA) was -1.83 and the interaction score (4H930-AA) was -1.33. For the same binder, the interaction score (4H94-AA) was -0.52.

With DEIAALEAKNAALEAKIAALKAENAALKG [4H428-AA] the interaction score (4H428-AA) was 0.174, the interaction score (4H478-AA) was -1.71 and the interaction score (4H497-AA) was -1.47. It also gave an interaction score (4H656-AA) of -0.675, an interaction score (4H675-AA) of 0.166 and an interaction score (4H971-AA) of -0.222.

Source: PMC10397247
